Experimental data taken from patent US20220041711A1 (NGM BIOPHARMACEUTICALS, published 2022).
Read-outs that look alike come from different tables or passages of the source. One block for each binder: values may come before it.

How the values were obtained:
[1] = molecular target: T1, mouse LAIR-1-PILRβ chimeric receptor on GFP reporter cells (mouse); assay: cell-based or functional assay
[2] = molecular target: T2, mouse LAIR-1-hFc (Sino Biological) (mouse, UniProt Q8BG84 22-144, limits assumed); assay: ELISA blocking: plate coated with 2 µg/mL mouse collagen type 1, antibody pre-incubated with 2 µg/mL mouse LAIR-1-hFc, HRP anti-human Fc, OD650 (left panel)
T2 construct: Bought; also called mouse LAIR-1-Fc; not shown: human Fc (hFc)
T2 sequence: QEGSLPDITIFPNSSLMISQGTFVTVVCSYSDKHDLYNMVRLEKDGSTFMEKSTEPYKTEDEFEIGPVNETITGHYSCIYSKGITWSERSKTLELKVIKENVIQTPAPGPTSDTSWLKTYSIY

[3] = molecular target: T2, mouse LAIR-1-hFc (Sino Biological); assay: flow cytometry blocking: antibody pre-incubated with 2 µg/mL mouse LAIR-1-hFc, added to HEK-293T cells transfected with mouse MARCO, Alexa Fluor 647 anti-human Fc, MFI (right panel)
[4] = molecular target: T1, mouse LAIR-1-PILRβ chimeric receptor on …; assay: cell-based or functional assay; remark: listed apart in the source
human LAIR-1-Fc = molecular target: T3, human LAIR-1-Fc (human, UniProt Q6GTX8 22-165); assay: ELISA blocking: plate coated with 5 µg/mL human collagen type 1, antibody titrated, 1 µg/mL biotinylated human LAIR-1-Fc, streptavidin-HRP, OD650
T3 construct: also called biotinylated human LAIR-1-Fc; not shown: a Fc region
T3 chain: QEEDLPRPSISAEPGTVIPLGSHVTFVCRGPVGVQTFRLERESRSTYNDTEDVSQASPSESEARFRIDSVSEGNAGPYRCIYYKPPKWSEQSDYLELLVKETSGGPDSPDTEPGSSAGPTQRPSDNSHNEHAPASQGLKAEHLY

[5] = molecular target: T4, human LAIR-1b (alternative isoform of human LAIR-1) on transfected 293T cells (human, UniProt Q6GTX8 22-287); assay: flow cytometry on cells expressing human LAIR-1b, PE anti-human Fc secondary, MFI (panel Human LAIR1 (Truncated) Cells)
T4 chain: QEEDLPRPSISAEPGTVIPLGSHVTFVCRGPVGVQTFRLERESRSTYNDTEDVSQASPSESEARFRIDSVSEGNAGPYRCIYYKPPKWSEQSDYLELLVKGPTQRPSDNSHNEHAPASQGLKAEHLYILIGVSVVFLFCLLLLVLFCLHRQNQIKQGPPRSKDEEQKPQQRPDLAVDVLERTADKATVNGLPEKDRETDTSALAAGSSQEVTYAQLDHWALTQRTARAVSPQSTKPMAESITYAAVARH

[6] = molecular target: T5, human LAIR-1-CD3ζ chimeric receptor on NFAT-GFP reporter cells (human, UniProt P20963 31-164, limits assumed); assay: cell-based or functional assay
[7] = molecular target: T5, human LAIR-1-CD3ζ chimeric receptor on …; assay: cell-based or functional assay; remark: listed apart in the source
[8] = molecular target: T6, cyno LAIR-1-CD3ζ chimeric receptor on NFAT-GFP reporter cells (cynomolgus monkey; human); assay: cell-based or functional assay
[9] = molecular target: T6, cyno LAIR-1-CD3ζ chimeric receptor on …; assay: flow cytometry on cyno LAIR-1 reporter cells, PE anti-human Fc secondary, MFI (panel Cynomolgus Monkey LAIR1 Cells)
[10] = molecular target: T5, human LAIR-1-CD3ζ chimeric receptor on …; assay: cell-based or functional assay; remark: listed apart in the source
[11] = molecular target: T6, cyno LAIR-1-CD3ζ chimeric receptor on …; assay: cell-based or functional assay; remark: listed apart in the source
[12] = molecular target: T5, human LAIR-1-CD3ζ chimeric receptor on …; assay: cell-based or functional assay; remark: listed apart in the source
cyno LAIR-1-ECD = molecular target: T7, cyno LAIR-1-ECD (cynomolgus monkey); assay: SPR (Biacore) as in Example 2
T7 construct: Recombinant, expressed in mammalian cells; also called extracellular region of cyno LAIR-1
T7 chain: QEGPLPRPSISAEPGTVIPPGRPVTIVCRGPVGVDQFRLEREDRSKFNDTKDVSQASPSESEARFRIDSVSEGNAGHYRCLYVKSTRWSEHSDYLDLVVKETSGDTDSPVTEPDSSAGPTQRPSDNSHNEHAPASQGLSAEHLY

human LAIR-1-ECD = molecular target: T8, human LAIR-1-ECD (human, UniProt Q6GTX8 22-165); assay: SPR (Biacore) as in Example 2
T8 construct: Recombinant, expressed in mammalian cells; also called extracellular region of human LAIR-1
T8 chain: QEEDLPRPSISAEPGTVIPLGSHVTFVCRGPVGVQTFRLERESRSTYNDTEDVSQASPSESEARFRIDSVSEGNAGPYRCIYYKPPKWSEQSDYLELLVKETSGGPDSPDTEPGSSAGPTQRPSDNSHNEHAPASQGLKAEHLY

[13] = molecular target: T5, human LAIR-1-CD3ζ chimeric receptor on …; assay: flow cytometry on human LAIR-1 reporter cells, PE anti-human Fc secondary, MFI (panel Human LAIR1 Cells)
[14] = molecular target: T5, human LAIR-1-CD3ζ chimeric receptor on …; assay: cell-based or functional assay; remark: listed apart in the source
[15] = molecular target: T6, cyno LAIR-1-CD3ζ chimeric receptor on …; assay: cell-based or functional assay; remark: listed apart in the source
[16] = molecular target: T9, human LAIR-1, endogenous on human cells (human, UniProt Q6GTX8 22-287); assay: flow cytometry of human PBMCs (9 donors) with Alexa Fluor 488-labelled ch47H1
T9 construct: Native receptor of primary human cells and of the THP1 line; isoform on the cells not determined; also called LAIR-1 on PBMC subsets, THP1 cells, monocyte-derived dendritic cells, macrophages and T-cells
T9 chain: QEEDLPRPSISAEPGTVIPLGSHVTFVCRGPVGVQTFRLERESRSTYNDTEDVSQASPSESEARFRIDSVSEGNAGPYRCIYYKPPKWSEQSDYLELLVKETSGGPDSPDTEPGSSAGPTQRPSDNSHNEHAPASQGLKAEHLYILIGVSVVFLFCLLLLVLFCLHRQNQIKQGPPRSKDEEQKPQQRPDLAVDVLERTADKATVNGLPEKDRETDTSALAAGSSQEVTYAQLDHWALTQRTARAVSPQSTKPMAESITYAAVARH

IC50 (read off the curve): % GFP+ mouse LAIR-1 reporter cells on coated human MARCO-his [1]: ~0.1 nM
IC50 (read off the curve): % GFP+ mouse LAIR-1 reporter cells on coated mouse collagen type 1 [1]: ~0.04 nM
IC50 (read off the curve): % GFP+ mouse LAIR-1 reporter cells on coated mouse collagen type 4 [1]: ~0.02 nM
IC50 (read off the curve) [2]: ~80 nM
IC50 (read off the curve) [3]: ~20 nM
IC50 (read off the curve): % GFP+ mouse LAIR-1 reporter cells co-cultured with bEnd.3 cells [4]: ~0.02 nM
B1: anti-mouse LAIR-1 antibody 43H2 (antibody, V domains shown)
VH: EVQLVESGGGLVQPGRSLKVSCAASGFTFSNYGIHWIRQAPTKGLEWVASISPSGRSTYFRDSVKGRFTISRDNAKNTLYLQLDSLRSEDTATYYCATGINYSSFDYWGQGVMVTVSS
VL: DIVMTQSPTSMSISVGDRVTMNCKASQNVGSHVDWYQQKTGQSPKLLISTASNRYTGVPDRFTGSGSGTDFTFTINNMQTEDLAVYYCMQSNSYPPTFGGGTKLELK
notes: Raised in rats

IC50 (read off the curve) (human LAIR-1-Fc): ~3 nM
EC50 (read off the curve) [5]: ~1 nM
IC50 (read off the curve): % GFP+ human LAIR-1 reporter cells on coated C1 complex [6]: ~0.02 nM
IC50 (read off the curve): % GFP+ human LAIR-1 reporter cells on coated COLEC12 [6]: ~0.05 nM
IC50 (read off the curve): % GFP+ human LAIR-1 reporter cells on coated MARCO-his [6]: ~0.03 nM
IC50 (read off the curve): % GFP+ human LAIR-1 reporter cells on coated MBL [6]: ~0.06 nM
IC50 (read off the curve): % GFP+ human LAIR-1 reporter cells on coated SP-D [6]: ~0.03 nM
IC50 (read off the curve): % GFP+ human LAIR-1 reporter cells on coated collagen 1 [6]: ~0.02 nM
IC50 (read off the curve): % GFP+ human LAIR-1 reporter cells on coated collagen 4 [6]: ~0.02 nM
IC50 (read off the curve): % GFP+ human LAIR-1 reporter cells on polymerized collagen matrix [7]: ~0.03 nM
IC50 (read off the curve): % GFP+ cyno LAIR-1 reporter cells on polymerized collagen matrix [8]: ~0.2 nM
EC50 (read off the curve) [9]: ~0.7 nM
IC50 (read off the curve): % GFP+ human LAIR-1 reporter cells on coated MARCO-his [10]: ~0.02 nM
IC50 (read off the curve): % GFP+ human LAIR-1 reporter cells on coated collagen 1 [10]: ~0.02 nM
IC50 (read off the curve): % GFP+ human LAIR-1 reporter cells on coated collagen 4 [10]: ~0.02 nM
IC50 (read off the curve): % GFP+ cyno LAIR-1 reporter cells on coated MARCO-his [11]: ~0.1 nM
IC50 (read off the curve): % GFP+ cyno LAIR-1 reporter cells on coated collagen 1 [11]: ~0.2 nM
IC50 (read off the curve): % GFP+ cyno LAIR-1 reporter cells on coated collagen 4 [11]: ~0.2 nM
IC50 (read off the curve): % GFP+ human LAIR-1 reporter cells on coated MARCO-his [12]: ~0.07 nM
IC50 (read off the curve): % GFP+ human LAIR-1 reporter cells on coated collagen 1 [12]: ~0.09 nM
IC50 (read off the curve): % GFP+ human LAIR-1 reporter cells on coated collagen 4 [12]: ~0.06 nM
Kd (cyno LAIR-1-ECD): 4.6 nM
koff (cyno LAIR-1-ECD): 0.001 s⁻¹
kon (cyno LAIR-1-ECD): 220000 M⁻¹ s⁻¹
Kd (human LAIR-1-ECD): 0.34 nM
koff (human LAIR-1-ECD): 0.00051 s⁻¹
kon (human LAIR-1-ECD): 1.5e+06 M⁻¹ s⁻¹
EC50 (read off the curve) [13]: ~0.2 nM
IC50 (read off the curve): % GFP+ human LAIR-1 reporter cells co-cultured with bEnd.3 cells [14]: ~0.02 nM
IC50 (read off the curve): % GFP+ cyno LAIR-1 reporter cells co-cultured with bEnd.3 cells [15]: ~0.1 nM
binding result [16]: binds
B2: anti-LAIR-1 antibody ch47H1 (antibody, V domains shown)
VH: EVQLVETGGGLVQPKGSLKLSCAASGFTFNINAMNWVRQAPGKGLEWVARIRTKNNNYATFYADSVKDRFTISRDDSQSMLYLQMNNLKTDDTAMYYCVRDRAGFFAYWGQGTPVTVSA
VL: DIQMTQSPASQSASLGESVTITCLASQTIGTWLGWYRQKPGKSPQLLIYAATSLADGVPSRFSGSGSGTKFSFKISSLQAEDFVIYYCQQLYSTPLTFGSGTKLEIK
notes: The prefix 'ch' is not defined; detected with anti-human Fc secondary antibody
